# Legend:
# erep1_human ENTREP1 = erep1_human ENTREP1 (UniProt Q15884)
# cxcr4_human CXCR4 = cxcr4_human CXCR4 (UniProt P61073)
# Chain of cxcr4_human CXCR4 (P61073 whole entry): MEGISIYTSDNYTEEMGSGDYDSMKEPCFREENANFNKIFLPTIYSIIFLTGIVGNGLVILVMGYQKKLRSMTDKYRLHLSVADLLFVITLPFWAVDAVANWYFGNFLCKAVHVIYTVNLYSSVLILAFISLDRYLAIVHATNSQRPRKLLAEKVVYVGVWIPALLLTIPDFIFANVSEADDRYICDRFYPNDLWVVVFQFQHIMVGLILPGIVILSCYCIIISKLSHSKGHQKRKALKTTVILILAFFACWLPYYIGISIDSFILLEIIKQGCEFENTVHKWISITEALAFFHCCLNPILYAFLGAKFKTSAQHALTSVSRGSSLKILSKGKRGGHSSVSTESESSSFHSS
# Chain of E3 ubiquitin-protein ligase Itchy homolog (Homo sapiens), Q96J02-2 C830A (Q96J02 other isoform, or with tags, fused parts or gaps C830A): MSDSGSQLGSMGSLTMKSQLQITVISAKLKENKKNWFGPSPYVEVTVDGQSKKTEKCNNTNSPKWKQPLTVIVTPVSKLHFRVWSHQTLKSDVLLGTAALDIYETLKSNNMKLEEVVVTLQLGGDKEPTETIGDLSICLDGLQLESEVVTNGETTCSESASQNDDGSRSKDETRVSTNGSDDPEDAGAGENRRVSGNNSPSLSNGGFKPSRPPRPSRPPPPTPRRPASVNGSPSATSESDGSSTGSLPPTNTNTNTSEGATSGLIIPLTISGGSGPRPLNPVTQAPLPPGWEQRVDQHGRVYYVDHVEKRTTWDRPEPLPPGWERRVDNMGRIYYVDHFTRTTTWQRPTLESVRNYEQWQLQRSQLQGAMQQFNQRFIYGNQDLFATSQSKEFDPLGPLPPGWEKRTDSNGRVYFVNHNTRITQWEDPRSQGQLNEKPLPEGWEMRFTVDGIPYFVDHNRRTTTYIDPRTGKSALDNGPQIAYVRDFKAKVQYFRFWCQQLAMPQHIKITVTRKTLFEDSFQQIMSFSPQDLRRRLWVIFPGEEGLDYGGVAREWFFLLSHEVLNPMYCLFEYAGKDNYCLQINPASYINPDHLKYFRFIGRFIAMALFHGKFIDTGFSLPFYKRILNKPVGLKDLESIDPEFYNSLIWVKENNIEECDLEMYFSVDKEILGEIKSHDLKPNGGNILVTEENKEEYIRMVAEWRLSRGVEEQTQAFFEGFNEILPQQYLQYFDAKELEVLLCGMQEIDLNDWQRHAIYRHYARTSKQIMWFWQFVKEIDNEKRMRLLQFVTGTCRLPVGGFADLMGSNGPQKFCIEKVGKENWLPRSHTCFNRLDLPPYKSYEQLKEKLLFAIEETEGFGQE
# Chain of erep1_human ENTREP1 (Q15884 whole entry): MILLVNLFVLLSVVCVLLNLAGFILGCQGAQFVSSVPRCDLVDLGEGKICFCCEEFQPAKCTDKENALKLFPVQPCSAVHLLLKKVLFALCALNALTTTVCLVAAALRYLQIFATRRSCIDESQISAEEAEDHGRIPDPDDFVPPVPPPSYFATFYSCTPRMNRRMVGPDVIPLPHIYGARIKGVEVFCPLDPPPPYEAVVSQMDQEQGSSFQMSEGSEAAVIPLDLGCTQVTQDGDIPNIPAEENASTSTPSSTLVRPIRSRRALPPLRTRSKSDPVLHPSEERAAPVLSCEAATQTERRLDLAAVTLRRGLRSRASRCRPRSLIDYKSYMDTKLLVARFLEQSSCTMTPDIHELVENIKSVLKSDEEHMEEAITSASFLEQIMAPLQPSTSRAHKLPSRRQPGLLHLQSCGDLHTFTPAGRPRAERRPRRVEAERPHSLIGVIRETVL
substance,measurement,setting,value
"E3 ubiquitin-protein ligase Itchy homolog (Homo sapiens), Q96J02-2 C830A",effect of a mutation on the interaction,erep1_human ENTREP1,with no effect
same,effect of a mutation on the interaction,cxcr4_human CXCR4,with no effect

# From IntAct's records for PubMed 34927784
